Test results as given in patent US7063946B2, “Methods, reagents, kits and apparatus for protein function analysis” (Meso Scale Technologies, LLC., priority 2001, dated 2006).

Tested on: phospho-pEY
Assay: Protein tyrosine phosphatase activity assay with phospho-pEY substrate
Assay type: biochemical
Conditions: 5 nM phospho-pEY, 45 min
Experimental: Several proteins were produced in an in vitro transcription and translation reaction using 1–150 ng of plasmid DNA including: Mock Luciferase (Promega); protein tyrosine phosphatase; non-receptor type 2 (PTP-N2, IMAGE ID# 3872164, Incyte Genomics, CA); and fer (fms/fps related) protein kinase, testis specific 2 clone (Fert2, IMAGE ID# 4485050, Incyte Genomics, CA). The proteins were produced and immobilized on SA coated NPT-IPR plates, as described in Example 7. […]
A tyrosine phosphate substrate was prepared by enzymatically phosphorylating poly(Glu, Tyr). […] The phosphorylation in the product was determined by transferring serially diluted reaction mixture to a streptavidin-coated NPT IPR plate and assaying for phosphorylated-poly(Glu, Tyr) as described in previous examples (see, e.g., Example 7).
The phosphorylated poly(Glu, Tyr) was used as a substrate to measure the phosphatase activity of the purified and immobilized PTP-N2. […] Following this incubation 45 μl of this mixture was transferred to a streptavidin-coated NPT IPR plate and the solution analyzed for phospho-poly(Glu, Tyr) content as described above.

B1: PTP-N2: protein tyrosine phosphatase, non-receptor type 2, IMAGE ID# 3872164 (protein, UniProt P17706 1-415, looked up)
Tyrosine-protein phosphatase …: MPTTIEREFEELDTQRRWQPLYLEIRNESHDYPHRVAKFPENRNRNRYRDVSPYDHSRVKLQNAENDYINASLVDIEEAQRSYILTQGPLPNTCCHFWLMVWQQKTKAVVMLNRIVEKESVKCAQYWPTDDQEMLFKETGFSVKLLSEDVKSYYTVHLLQLENINSGETRTISHFHYTTWPDFGVPESPASFLNFLFKVRESGSLNPDHGPAVIHCSAGIGRSGTFSLVDTCLVLMEKGDDINIKQVLLNMRKYRMGLIQTPDQLRFSYMAIIEGAKCIKGDSSIQKRWKELSKEDLSPAFDHSPNKIMTEKYNGNRIGLEEEKLTGDRCTGLSSKMQDTMEENSESALRKRIREDRKATTAQKVQQMKQRLNENERKRKRWLYWQPILTKMGFMSVILVGAFVGWTLFFQQNAL
ECL signal: 70,574
